According to patent publication US20190185562A1 (Regeneron, published 2019):

B1: MAb16665 (antibody, V domains shown)
VH: QVQLVESGGGVVQPGRSLRLACAASGFTFRSYGMHWVRQAPGKGLEWVAVIWYDGSNKYYTDSVKGRFTISRDNSKNTLYLQMNSLRAEDTAMYYCAIDKWATVTTYLFDYWGQGTLVTVSS
VL: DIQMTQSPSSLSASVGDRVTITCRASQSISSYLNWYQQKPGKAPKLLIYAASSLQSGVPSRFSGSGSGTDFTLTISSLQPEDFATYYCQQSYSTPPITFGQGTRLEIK
notes: Variable domains only
B2: MAb16669 (antibody, V domains shown)
VH: EVQLVESGGGLVQPGGSLRLSCAASGFTFSSYAMNWVRQAPGKGLEWVSAISGSGDSTYYTDSVKGRFTISRDNSKNTLYLQMNTLRAEDTAVYYCAKEEIVMLVGATPGWFDPWGQGTLVTVSS
VL: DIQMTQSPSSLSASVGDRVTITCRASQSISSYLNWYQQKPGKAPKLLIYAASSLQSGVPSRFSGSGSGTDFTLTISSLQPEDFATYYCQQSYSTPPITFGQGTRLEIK
notes: Variable domains only
B3: MAb16656 (antibody, V domains shown)
VH: EVQLVESGGGLVQPGRSLRLSCAASGFTLDDFAMHWVRQAPGKGLEWVSGISWNSGNIGYADSVKGRFTISRDNARNSLYLQMNSLRAEDTALYYCTSGYYLYYAMDVWGQGTTVTVSS
VL: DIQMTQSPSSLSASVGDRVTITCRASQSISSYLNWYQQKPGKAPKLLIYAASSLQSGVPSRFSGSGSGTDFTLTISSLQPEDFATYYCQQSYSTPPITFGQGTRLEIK
notes: Variable domains only
B4: MAb16682 (antibody, V domains shown)
VH: EVQLVESGGGLVQPGGSLRLSCAASGFTFSTYWMNWVRQAPGKGLEWVANIKEDGSEKYYVDSVKGRFTISRDNAKNSLYLQMNSLRAEDTAVYYCAREGFGVVTYIWGQGTMVTVSS
VL: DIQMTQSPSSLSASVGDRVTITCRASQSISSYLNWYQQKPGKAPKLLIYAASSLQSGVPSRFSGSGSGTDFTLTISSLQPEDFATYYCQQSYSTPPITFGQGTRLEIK
notes: Variable domains only
B5: MAb16662 (antibody, V domains shown)
VH: EVQLVESGGGLVQPGGSLRLSCTASGFTFSNYAIFWVRQAPGKGLEYVSGISNNGVTKYYADSVRDRFTISRDNSRNTVSIQMDSLRTEDMAVYYCARENWGSDDGFDIWGQGTMVTVSS
VL: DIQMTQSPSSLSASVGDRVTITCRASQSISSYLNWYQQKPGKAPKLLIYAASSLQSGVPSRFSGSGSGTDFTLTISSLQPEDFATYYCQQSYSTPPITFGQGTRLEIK
notes: Variable domains only
B6: MAb16618 (antibody, V domains shown)
VH: QVQLQESGPGLVKPSETLSLTCTVSGGSISNYYWTWIRQPPGKGLEWIGHISNSGTTNYNPSLKSRVTISVDTSKNQFSLKLTSVTAADTAVYYCARLPLGIAAVDTDYYYYFGMDVWGQGTTVTVSS
VL: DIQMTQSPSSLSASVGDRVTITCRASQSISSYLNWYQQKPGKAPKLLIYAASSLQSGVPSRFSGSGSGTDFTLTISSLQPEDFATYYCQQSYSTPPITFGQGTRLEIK
notes: Variable domains only
B7: MAb16636 (antibody, V domains shown)
VH: QLQLQESGPGLVKPSETLSLICTVSGGSISSNNYYWGWIRQPPGKGLEWIGNLYGSGSTYYNPSLKSRVTISVDTSKNQFSLKLSFVTAADTAVYHCARWDTNGGAFDIWGQGTMVTVSS
VL: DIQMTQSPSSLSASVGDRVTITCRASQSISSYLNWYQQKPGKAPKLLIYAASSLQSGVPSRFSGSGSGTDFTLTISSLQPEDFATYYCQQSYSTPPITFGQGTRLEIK
notes: Variable domains only
B8: MAb16676 (antibody, V domains shown)
VH: QVQLVQSGAEVMKPGASVKVSCRASGYTFSSYDINWVRQAPGQGLEWMGWISTATGNTNYPQKVQGRVTMTTDTSTNTAYMELRSLRSDDTAVYYCTREGNSKGWLDPWGQGTLVTVSS
VL: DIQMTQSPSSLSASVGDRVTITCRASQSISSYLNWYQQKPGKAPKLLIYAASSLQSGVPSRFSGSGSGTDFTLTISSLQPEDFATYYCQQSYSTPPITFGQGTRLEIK
notes: Variable domains only
B9: MAb16683 (antibody, V domains shown)
VH: QVQLVESGGGLVKPGGSLRLSCAASGFTFSDYYMTWIRQTPGKGLDWVSYISSSGTNKYNADSVKGRFTISRDNAKNSLYLQMNSLRAEDTAVYYCVRDPPWGMDVWGQGTTVTVSS
VL: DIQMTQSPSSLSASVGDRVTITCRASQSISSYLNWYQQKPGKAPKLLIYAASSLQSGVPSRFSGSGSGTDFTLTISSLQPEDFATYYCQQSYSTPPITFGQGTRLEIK
notes: Variable domains only
B10: MAb16673 (antibody, V domains shown)
VH: EVQLVQSGAEVKKPGESLKISCKGSGYSFTSYWIDWVRQMPGKGLEWMGIIYPDDSDTRYSPSFQGQVTMSVDKSISTAYLQWSSLKASDTAIYYCARHERGIVEAGTDYYYYYGMDVWGQGTTVTVSS
VL: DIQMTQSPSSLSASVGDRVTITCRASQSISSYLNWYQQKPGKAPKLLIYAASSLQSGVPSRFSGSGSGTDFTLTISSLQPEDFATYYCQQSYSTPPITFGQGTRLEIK
notes: Variable domains only
B11: MAb16623 (antibody, V domains shown)
VH: EVQLVESGGGLVQPGGSLRLSCAASGLTFSSYEMNWVRQAPGKGLEWVSHISSAGSTKYYADSVKGRFTISRDNAKNSLFLQMNSLRAEDTAIYYCAGYNYAYYYFGVDVWGQGTTVTVSS
VL: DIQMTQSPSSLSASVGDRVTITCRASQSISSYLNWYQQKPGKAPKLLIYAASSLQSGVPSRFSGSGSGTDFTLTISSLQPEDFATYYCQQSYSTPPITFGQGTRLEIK
notes: Variable domains only
B12: MAb16659 (antibody, V domains shown)
VH: QVQLVQSGPEVKKPGSSVKVSCKASGGTIDRNEITWVRQAPGQGLEWMGVIIPILGEAHYERKFQGRLTITMDESTSTAYMELSNLRSEDTAVYYCARERAARGYLDYWGQGTLVTVSS
VL: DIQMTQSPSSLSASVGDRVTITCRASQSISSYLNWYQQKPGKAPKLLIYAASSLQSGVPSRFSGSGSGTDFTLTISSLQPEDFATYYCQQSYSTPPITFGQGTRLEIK
notes: Variable domains only
B13: MAb16622 (antibody, V domains shown)
VH: EVQLVESGGGVVRPGGSLRLSCTASGFTFDDYGMSWVRQAPGKGLEWVSGINWNGGRTEYADAVKGRFIISRDNAKNSLYLQMNSLRAEDTALYFCARTELRWDYWGQGTLVTVSS
VL: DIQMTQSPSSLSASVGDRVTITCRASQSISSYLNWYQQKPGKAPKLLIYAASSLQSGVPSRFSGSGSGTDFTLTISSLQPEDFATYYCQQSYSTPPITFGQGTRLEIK
notes: Variable domains only
B14: MAb16637 (antibody, V domains shown)
VH: QVQLVQSGAEVKKPGASVKVSCKASGYTFTSLGISWVRQAPGQGLEWMGWISAYSGNRDYAQKFQGRVTMTTDTSTSTAYMELRSLRSDDTAVYYCARSLRFDYWGQGTLVTVSS
VL: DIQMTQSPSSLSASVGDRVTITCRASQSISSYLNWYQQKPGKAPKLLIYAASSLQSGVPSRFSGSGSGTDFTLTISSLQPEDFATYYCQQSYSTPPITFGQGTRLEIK
notes: Variable domains only
B15: MAb16614 (antibody, V domains shown)
VH: QVQLVESGGGVVQPGGSLRLSCAASGFTFSTYDIHWVRQAPGKGLEWVAVISFDGSNRNYGDSVKGRFTISRDNSDNTLFLEMNNLRFEDTAVYYCAKEGYGVDFQHWGQGTLVTVSS
VL: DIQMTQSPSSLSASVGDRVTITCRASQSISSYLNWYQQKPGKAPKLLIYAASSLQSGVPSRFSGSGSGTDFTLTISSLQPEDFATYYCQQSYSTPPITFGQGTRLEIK
notes: Variable domains only
B16: MAb16664 (antibody, V domains shown)
VH: QVQLVQSGTEVKKPGSSVKVSCKASGGTFSTYPINWVRQAPGQGLEWMGGIIPIFGTASYAQKFQGRVAITTDESTSTAYMELNSLRSEDTAVYYCARERPNWGSNDYWGQGTLVTVSS
VL: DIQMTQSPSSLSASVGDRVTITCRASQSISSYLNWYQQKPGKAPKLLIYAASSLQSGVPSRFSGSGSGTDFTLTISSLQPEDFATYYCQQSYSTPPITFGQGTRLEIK
notes: Variable domains only

Target: T1, full length (FL) human gp130 over-expressed on HEK293/Stat3-luc/gp130-2X Sort cells (human, UniProt P40189 23-918)
T1 construct: whole, on cells
T1 sequence (looked up): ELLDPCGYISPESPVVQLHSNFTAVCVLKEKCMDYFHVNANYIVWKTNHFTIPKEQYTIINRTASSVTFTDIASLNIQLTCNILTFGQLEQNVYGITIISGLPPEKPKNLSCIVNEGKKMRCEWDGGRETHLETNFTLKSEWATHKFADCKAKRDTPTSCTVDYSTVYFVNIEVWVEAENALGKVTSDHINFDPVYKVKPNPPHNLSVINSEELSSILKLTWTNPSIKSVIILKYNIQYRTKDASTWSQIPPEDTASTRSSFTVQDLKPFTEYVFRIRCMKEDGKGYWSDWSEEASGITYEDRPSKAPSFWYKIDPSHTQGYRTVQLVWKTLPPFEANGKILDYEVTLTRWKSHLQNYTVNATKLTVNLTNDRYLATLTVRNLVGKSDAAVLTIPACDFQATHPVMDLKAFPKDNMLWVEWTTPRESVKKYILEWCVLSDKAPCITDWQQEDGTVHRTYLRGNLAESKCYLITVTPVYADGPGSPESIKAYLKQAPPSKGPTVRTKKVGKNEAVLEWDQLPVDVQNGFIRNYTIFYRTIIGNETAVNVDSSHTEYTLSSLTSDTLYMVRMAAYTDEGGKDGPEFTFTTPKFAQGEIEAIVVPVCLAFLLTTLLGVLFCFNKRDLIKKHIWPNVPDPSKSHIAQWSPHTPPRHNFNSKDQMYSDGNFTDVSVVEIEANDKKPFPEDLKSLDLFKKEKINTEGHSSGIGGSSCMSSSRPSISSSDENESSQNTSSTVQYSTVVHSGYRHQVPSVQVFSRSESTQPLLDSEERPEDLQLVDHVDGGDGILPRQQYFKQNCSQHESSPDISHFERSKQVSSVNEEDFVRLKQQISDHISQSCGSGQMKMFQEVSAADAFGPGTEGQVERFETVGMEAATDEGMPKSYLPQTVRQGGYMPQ
Assay: FACS, 10 nM mAb, 293/Stat3-luc/GP130 2X sort cells
From the text: (§1) In order to assess cell binding by anti-GP130 antibodies of the invention two cell lines were generated. One cell line generated was HEK293 cells stably over-expressing full length (FL) human gp130 (amino acids 1-918 of accession # P40189 with leucine at position 2 changed to valine, a natural variant) along with a luciferase reporter (Stat3-luciferase, Stat3-luc, SA Bioscience, #CLS-6028L). The cells were sorted twice using flow cytometry for high expression of gp130. It is known hereafter as HEK293/Stat3-luc/gp130-2X Sort. IMR-32 cells (human Neuroblastoma, ATCC), were also evaluated for cell binding as these cells express gp130 endogenously and were used for bioassays. The cells used for binding were generated to stably express a luciferase reporter (Stat3-luciferase, Stat3-luc, SA Bioscience, #CLS-6028L), and are referred to hereafter as IMR-32/STAT3-Luc cells.
(§2) For the FACS analysis, 10 nM of the antibodies were used to stain 0.5×10^6 cells/well of each cell type at 4° C. in PBS (without calcium and magnesium) containing 2% FBS for 30 minutes. IMR-32/STAT3-luc cells were incubated with 1 mg/mL mouse IgG for 30 minutes at 4° C. to block Fc receptors prior to adding the antibodies. To test whether the anti-gp130 antibody binding is specific for gp130 on the IMR-32 cells, antibodies were added to IMR-32/Stat3-luc cells with or without being pre-bound to 1000 nM of recombinant protein of the ecto-domain of human gp130 fused to myc-myc-his tag (hgp130.mmh) for 30 minutes at 25° C. […] Cells were fixed using BD CytoFix™ (Becton Dickinson, #554655) and analyzed on an IQue® (Intellicyt®) Flow Cytometer. Unstained and secondary antibody alone controls were also tested for all cell lines. The results were analyzed using ForeCyt® (IntelliCyt®) software to determine the geometric means of fluorescence for viable cells.

Compared with B1, B2 is lower in “MFI - Normalized to Unstained Control” value: 55 for the first, 53 for the second.

Compared with B3, B4 is lower in “MFI - Normalized to Unstained Control” value: 132 for the first, 80 for the second.

First: B5
Second: B6
The “MFI - Normalized to Unstained Control” value of the first is lower: 49 for the first, 105 for the second.

Going from B7 to B8, the “MFI - Normalized to Unstained Control” value falls from 92 to 74.

Going from B9 to B10, the “MFI - Normalized to Unstained Control” value rises from 75 to 107.

Compared with B11, B12 is lower in “MFI - Normalized to Unstained Control” value: 96 for the first, 81 for the second.

First: B13
Second: B14
The “MFI - Normalized to Unstained Control” value of the first is lower: 91 for the first, 121 for the second.

First: B15
Second: B16
The “MFI - Normalized to Unstained Control” value of the first is higher: 94 for the first, 45 for the second.

Target: T2, human gp130 expressed endogenously on IMR-32/Stat3-luc cells (human, UniProt P40189 23-918)
T2 construct: whole, on cells
T2 sequence (looked up): T1 sequence (looked up)
Assay: FACS, 10 nM mAb, IMR-32/Stat3-luc cells, competitor 1 uM hGP130.mmh
From the text: as §1, §2

First: B1
Second: B2
The “MFI - Normalized to Unstained Control” value of the first is higher: 6 for the first, 5 for the second.

Going from B3 to B4, the “MFI - Normalized to Unstained Control” value rises from 7 to 8.

First: B5
Second: B6
The “MFI - Normalized to Unstained Control” value of the first is lower: 6 for the first, 8 for the second.

First: B7
Second: B8
The “MFI - Normalized to Unstained Control” value of the first is lower: 7 for the first, 8 for the second.

B9 and B10 are the same in “MFI - Normalized to Unstained Control” value: 7 for the first, 7 for the second.

First: B11
Second: B12
The “MFI - Normalized to Unstained Control” value of the first is lower: 7 for the first, 8 for the second.

B13 and B14 are the same in “MFI - Normalized to Unstained Control” value: 7 for the first, 7 for the second.

Going from B15 to B16, the “MFI - Normalized to Unstained Control” value rises from 6 to 8.

Target: T2, human gp130 expressed endogenously on …
Assay: FACS, 10 nM mAb, IMR-32/Stat3-luc cells, no hGP130.mmh
From the text: as §1, §2

Going from B1 to B2, the “MFI - Normalized to Unstained Control” value rises from 5 to 6.

First: B3
Second: B4
The “MFI - Normalized to Unstained Control” value of the first is higher: 12 for the first, 6 for the second.

First: B5
Second: B6
The “MFI - Normalized to Unstained Control” value of the first is lower: 5 for the first, 7 for the second.

Going from B7 to B8, the “MFI - Normalized to Unstained Control” value rises from 8 to 9.

Going from B9 to B10, the “MFI - Normalized to Unstained Control” value rises from 9 to 10.

B11 and B12 are the same in “MFI - Normalized to Unstained Control” value: 8 for the first, 8 for the second.

First: B13
Second: B14
The “MFI - Normalized to Unstained Control” value of the first is lower: 5 for the first, 9 for the second.

B15 and B16 are the same in “MFI - Normalized to Unstained Control” value: 7 for the first, 7 for the second.
